# From US20170369523A1, “TEMPLATE-FIXED BETA-HAIRPIN PEPTIDOMIMETICS THAT ARE LIGANDS FOR G-PROTEIN-COUPLED RECEPTORS (GPCRS) AND ARE MODULATORS OF TRANSCRIPTION FACTORS AND COACTIVATORS” (POLYPHOR AG, priority 2008, published 2017)
# Numbered stars: 1 amine (or outer) side, 2 acyl side, 3 side chain; on linkers, the order of the positions; unused ones are H or OH. Bridge positions count the residues as written; N and C are the ends. Square brackets hold non-standard residues; d marks the D form. Peptide text beside a SMILES is read from it. Glu(cHx) = L-glutamic acid cyclohexyl ester, O=C(CC[C@H](N[*:1])C(=O)[*:2])OC1CCCCC1; Pro(4S-SH) = O=C([C@@H]1C[C@H](S[*:3])CN1[*:1])[*:2]; Trp(6-Cl) = N[C@@H](Cc1c[nH]c2cc(Cl)ccc12)C(=O)O; Cha = N[C@@H](CC1CCCCC1)C(=O)O; Orn = NCCC[C@H](N)C(=O)O
# T1: NCoA-1 (Homo sapiens, UniProt Q15788)
# T1 sequence (Q15788 257-385 limits assumed): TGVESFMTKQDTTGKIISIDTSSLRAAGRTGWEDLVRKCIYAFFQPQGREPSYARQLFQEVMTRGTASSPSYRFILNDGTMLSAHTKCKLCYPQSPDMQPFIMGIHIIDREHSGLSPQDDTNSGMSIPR
# T2: human UTR2 receptor (human, UniProt Q9UKP6 1-389)
# T2 sequence (looked up): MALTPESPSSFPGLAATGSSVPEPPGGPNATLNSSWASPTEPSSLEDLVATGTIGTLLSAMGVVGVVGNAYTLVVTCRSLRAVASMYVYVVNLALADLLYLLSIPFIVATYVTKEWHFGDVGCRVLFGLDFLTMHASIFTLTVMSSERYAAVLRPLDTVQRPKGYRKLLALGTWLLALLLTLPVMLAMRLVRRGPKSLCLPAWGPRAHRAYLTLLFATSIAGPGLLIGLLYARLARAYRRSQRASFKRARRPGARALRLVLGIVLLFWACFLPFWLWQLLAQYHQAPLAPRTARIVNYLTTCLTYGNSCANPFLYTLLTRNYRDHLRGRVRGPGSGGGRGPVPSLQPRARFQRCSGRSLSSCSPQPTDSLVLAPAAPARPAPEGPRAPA
# B1: Ex. 32 (peptide)
# peptide: cyclo(DCF[dW][Orn]YCV[dP]P)
# modifications: disulfide 2-7
# SMILES: CC(C)[C@@H]1NC(=O)[C@@H]2CSSC[C@H](NC(=O)[C@H](CC(=O)O)NC(=O)[C@@H]3CCCN3C(=O)[C@H]3CCCN3C1=O)C(=O)N[C@@H](Cc1ccccc1)C(=O)N[C@H](Cc1c[nH]c3ccccc13)C(=O)N[C@@H](CCCN)C(=O)N[C@@H](Cc1ccc(O)cc1)C(=O)N2
# B2: Ex. 35 (peptide)
# peptide: cyclo(DCFWKYC[Cha][dP]P)
# modifications: disulfide 2-7
# SMILES: NCCCC[C@@H]1NC(=O)[C@H](Cc2c[nH]c3ccccc23)NC(=O)[C@H](Cc2ccccc2)NC(=O)[C@@H]2CSSC[C@H](NC(=O)[C@H](Cc3ccc(O)cc3)NC1=O)C(=O)N[C@@H](CC1CCCCC1)C(=O)N1CCC[C@@H]1C(=O)N1CCC[C@H]1C(=O)N[C@@H](CC(=O)O)C(=O)N2
# How the values were obtained:
# NCoA-1 = biological target: T1, NCoA-1; assay: Competition fluorescence polarization assay: NCoA-1 binding affinities of peptides (STAT6/NCoA-1 interaction); details: competition with FluoSTAT6 (200 nM), NCoA-1 1 μM; Ki calculated from IC50; read-out: Ki [μM], peptide binding to NCoA-1
# Experimental: 2.4. Fluorescence Polarization Assay: NCoA-1 Binding Affinities of Peptides
# The mixtures were shaken thoroughly. Fluorescence polarization was measured on a SPECTRAmax M5 spectrometer (Molecular device) following 5-30 min incubation at room temperature. FluoSTAT6 was excited at 490 nm and emission polarization was detected at 525 nm. 40 intensity measurements were collected for each well, 20 at horizontal position of the dynamic polarizer, 20 at parallel position. As the fraction of FluoSTAT6 bound to NCoA-1 is correlated to the fluorescence polarization (FP), after normalization, the fraction of bound FluoSTAT6 (B) was determined, and the KD was calculated according to B=[(1+P/R+KD/R)−((1+P/R+KD/R)^2−4P/R)^0.5]/2, wherein P is the total probe concentration, R the total protein concentration and KD the dissociation constant (M. H. Roehrl, J. Y. Wang, G. Wagner, Biochemistry 2004, 3, 16056).
# The mixture was completed by a HEPES buffer solution of NCoA-1 (1 μM final concentration) and processed as described above. STAT6Y (C-terminal tyrosine extended STAT6 794-814 peptide) was used as a positive control. As the total fluorescence intensity of FluoSTAT6 remains similar for all samples, the fraction of peptide bound to NCoA-1 is correlated to the fluorescence polarization.
# Following normalization data were fitted with IGORpro Software® (WaveMetrics, Lake Oswego, Oreg., USA) to a sigmoid equation to determine IC50 values. The Ki values were calculated from IC50 values according to the method described by Nikolovska-Coleska et al. Anal. Biochem., 2004, 332, 261).
# human UTR2 receptor = biological target: T2, human UTR2 receptor; assay: cell-based or functional assay
molecule,measurement,setting,value
"backbone-cyclized β-hairpin peptidomimetic; P1-P8 Phe-Thr-Trp(6Cl)-Leu-Ala-Trp-Glu-Phe, template DPro-L4Mp1 (cyclo(FT[Trp(6-Cl)]LAWEF[dP][Pro(4S-SH)]); SMILES CC(C)C[C@@H]1NC(=O)[C@H](Cc2c[nH]c3cc(Cl)ccc23)NC(=O)[C@H]([C@@H](C)O)NC(=O)[C@H](Cc2ccccc2)NC(=O)[C@@H]2C[C@H](S)CN2C(=O)[C@H]2CCCN2C(=O)[C@H](Cc2ccccc2)NC(=O)[C@H](CCC(=O)O)NC(=O)[C@H](Cc2c[nH]c3ccccc23)NC(=O)[C@H](C)NC1=O) [compound 5]",Ki,NCoA-1,3.8 µM
CC[C@H](C)[C@@H]1NC(=O)[C@H](CCC(=O)O)NC(=O)[C@H](Cc2c[nH]c3ccccc23)NC(=O)[C@H](C)NC(=O)[C@H](CC(C)C)NC(=O)[C@H](Cc2c[nH]c3ccccc23)NC(=O)[C@H](CCC(=O)O)NC(=O)[C@H](Cc2ccccc2)NC(=O)[C@@H]2CCCN2C(=O)[C@H]2CCCN2C1=O [compound 10] (cyclo(FEWLAWEI[dP]P)),Ki,NCoA-1,3.1 µM
"backbone-cyclized β-hairpin peptidomimetic; P1-P8 Phe-Glu-Trp-Leu-Ala-Trp-Glu-Glu(cHx), template DPro-LPro (cyclo(FEWLAWE[Glu(cHx)][dP]P); SMILES CC(C)C[C@@H]1NC(=O)[C@H](Cc2c[nH]c3ccccc23)NC(=O)[C@H](CCC(=O)O)NC(=O)[C@H](Cc2ccccc2)NC(=O)[C@@H]2CCCN2C(=O)[C@H]2CCCN2C(=O)[C@H](CCC(=O)OC2CCCCC2)NC(=O)[C@H](CCC(=O)O)NC(=O)[C@H](Cc2c[nH]c3ccccc23)NC(=O)[C@H](C)NC1=O) [compound 9]",Ki,NCoA-1,1.5 µM
B1,"IC50% (Ca2+ assay, antagonist activity; compound added prior to urotensin)",human UTR2 receptor,0.03 nM
B2,"IC50% (Ca2+ assay, antagonist activity; compound added prior to urotensin)",human UTR2 receptor,0.2 nM
